Consider 40 sequences from the nanobody polyreactivity screen of Harvey et al. (2022).

The series is described as follows: yeast display, Sf9 membrane polyspecificity reagent, FACS + sequencing; frameworks hold sequencing errors. Summed up: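 Polyreactivity labels are assigned by the sorting gate from which each nanobody was recovered. The gates were low and high (top ~1%), set on anti-HA fluorescence for expression and streptavidin fluorescence for reagent binding. Before sorting, galactose-induced (36–48 hours) yeast display cells were stained for 1 hour at 4 °C with 10% biotinylated, detergent-solubilized Sf9 membrane reagent.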
On to “QVKHVESGGGLVQAGCILRLSCSASGSTFARYAMGWYRQSPGKERELVAGISQSGGTTYYADSVKGRFTISRDNEKNTVYLQMNSLKPEDTAVYYCAARRWVAYTLEYWGQGTQVTVSS”, for which the “polyreactivity (PSR sort gate)” value is on record as “high polyreactivity”.

Turning to “QVKIVESGGGLVQAGGSLRLSCAASGGIFNWYAMGWYRPAPGKERELVAAITQSGGSTYYADSVKGRFTISRDNAKNTEYLQMNSLKPEDTAVYYCNKDQEKFWTAFNTIGRAREYDYWGQGTQVTVSS”, the “polyreactivity (PSR sort gate)” value is given as “low polyreactivity”.

With “QVKLEESGGGLVQAGGSISLSCAASGSIFFWYTMGCYRQAPGKERELVATITGSGSSTTYADSVKGRFTISRDNAKNTVYLQMNSLKPEDTAVYYCAAADIIDHSFTYDYWGQGTQVTVSS”, the “polyreactivity (PSR sort gate)” value is reported as “low polyreactivity”.

With “QVKLEESGGGLVQAGGSLRLSCAASGSTFPGNAMGSYRQAPGKERELVAAINWSGDSTYYADSVKGRFTNSRDKPKNTVYLQMNSLTPEDTAVYYCAAYGDGYYYWGQGTQVTVSS”, the “polyreactivity (PSR sort gate)” value is listed as “low polyreactivity”.

Take “QVKLQESGGSHVQAGGSLRLSCAASGFIFARNYIGWYRQAPCKERELVAGIGVRASTNYADSDKGRFTISRDNAKNSVYLQMNSLEPEDTAVYYCAVGDTVLGYHYYWGQGTQVTVSN”: the “polyreactivity (PSR sort gate)” value is “low polyreactivity”.

As for “QVKLVDSGGGLVQAGGSLRLTCAASGRTLGRNGMGWYRQDPGKERELVAAISLSGGRSYADSVKGRFTISRDNAKNSVYLQMNSLKPEDTAVYYCAKVGYSRRYAYNVYYWGQGTQLTVSS”, the “polyreactivity (PSR sort gate)” value is reported as “low polyreactivity”.

On to “QVKLVESAAGLVQPGGSHRLSCAASGRIFSYYAMGWSRQAPGKDRELVAAISRTGGTTYYADSVKGRFTSSRDNAKNTVYLQMNSLKPEDTAVYYCNAVKAPYLSYDYWGKGTQVTVSS”, for which the “polyreactivity (PSR sort gate)” value is given as “high polyreactivity”.

Regarding “QVKLVESGGGLDQAGGSLRLSCAASGRTFGSYTMGWYRQAPGKERELVAAITSGGRTNYADSVKGRFTISRDNAKNTVYLQMNSLKPEDTAVYYCAAGWRGGRYRYFAYDYWGQGTQVTVSS”, the “polyreactivity (PSR sort gate)” value is recorded as “high polyreactivity”.

As to “QVKLVESGGGLVQAGGRLSLSCAASGLTLSGNAMGWYRQAPGKDRELVAAITGRGGSTTYADSVKGRFTISRDNAKNTVYLQMNSVKPEDTAVYYCAATRYSWNNRVSRRHRYEYWGQGTQVTVSS”, the “polyreactivity (PSR sort gate)” value is reported as “high polyreactivity”.

“QVKLVESGGGLVQAGGSLLLSCAASGITFSRNAMGLYREAPGKERELVAAINWTGGNTYYADSVKGRFTISRDNAKNTVYLQMISMKPEDTAVYYCAAERRCFVWGLGYWGQGTQVTVSS”: the “polyreactivity (PSR sort gate)” value is given as “low polyreactivity”.

“QVKLVESGGGLVQAGGSLLLSCDASGIIFKYYAMGWYRQAPGKERELVARITARGGRTYYADSVKGRFTISRDNAKNTVYLQMNSLKPEDTAFYYCAKKLRGWHTIITDYDYWGQGTQLTVSS”: the “polyreactivity (PSR sort gate)” value is given as “low polyreactivity”.

Consider “QVKLVESGGGLVQAGGSLRISCAASVSIFPVYAMGWYRQAPGKERELVAAISSRGGRTYYADSVKGLFTISRDNAKNTVYLQMNSLKPEDNAVYYFATDYSTYYRLPSQYDYWGQGTQVTVSS”, for which the “polyreactivity (PSR sort gate)” value is given as “low polyreactivity”.

With “QVKLVESGGGLVQAGGSLRLICAASGFTFRYYTMGWYRQAPGKARELVAAISRSSGSRTYYADSVKGRFTISRDNAKNTVYLQMNSLKPEDTAVYYCNADPAYQFDYWGQGTQVTVSS”, the “polyreactivity (PSR sort gate)” value is “high polyreactivity”.

As for “QVKLVESGGGLVQAGGSLRLSCAASGIIFYDYAMGWYRQAPGKERELVAAISSGGDTYYADSVKGRFTISRDNAKNTVYLQMNSLKPEVTAVYYCAAYPPFIYSDPSIWYDYWGQGSQVTVSS”, the “polyreactivity (PSR sort gate)” value is listed as “low polyreactivity”.

Regarding “QVKLVESGGGLVQAGGSLRLSCAASGIIFYSYAIGGYRPAPGTERELVAAISSTGSTYYADSVKGRFTISRDNAKNTVYLQMNSLKPEDTAVYYCAATFYPYQVHHYYYWGQGTQVTVSS”, the “polyreactivity (PSR sort gate)” value is recorded as “low polyreactivity”.

For the sequence “QVKLVESGGGLVQAGGSLRLSCAASGRIFGRNTMGWYRQAPGKEREFVATITSGGSTYYADSVKGRFTISRDNAKNTVYLQMNSLKPEDTAVYYFNARGYSWRWYPLTSDYDSWGQGTQVTVSS”, the “polyreactivity (PSR sort gate)” value is “high polyreactivity”.

As for “QVKLVESGGGLVQAGGSLRLSCAASGRIFRFNPMGCYRQAPGKERELVAASNWRGGTTYADSVKGRFTISRDNAKNTVYLQMNSLKPEDTAVYYCNAGYGVTKWPYEERYDYWGQGTQVTLSS”, the “polyreactivity (PSR sort gate)” value is on record as “high polyreactivity”.

Turning to “QVKLVESGGGLVQAGGSLRLSCAASGRTFPSYAMGWYRQAPGKERELVAAISRSGGSTYYADSVKGRFTISRDNAKNPVYLQMNSLKPEDTAVYYCAAVSRVHFSYIYDYWGQGTQVTVSS”, the “polyreactivity (PSR sort gate)” value is on record as “high polyreactivity”.

On to “QVKLVESGGGLVQAGGSLRLSCAASGRTFPYYAKGWYRQAPGKERELVAAISWSGGSTYYADSVKGRFTISRDNAKNTVYLQMNSLKPEDTAVYYCNTVFSPWPDFRRFGYWGQGTQVTVSS”, for which the “polyreactivity (PSR sort gate)” value was “high polyreactivity”.

For the sequence “QVKLVESGGGLVQAGGSLRLSCAASGRTFYLYAMGWYRQAPGKERELVARITSGGTTNYADSVKGRFTISRDNAKNTVYLQMNSLKPEDTAVYYCAADPEGLGRVASRYFHFDYWGQGTQVTVSS”, the “polyreactivity (PSR sort gate)” value is “low polyreactivity”.

For “QVKLVESGGGLVQAGGSLRLSCAASGSIFLAYAMGWYRQAPGKEREFVAAISCSDGSTYYADSVKGRFTISRDNAKNTVYLQMNSLKPDDTAVFYCYKGASADDYDYCGQGTQVTVSS”, the “polyreactivity (PSR sort gate)” value is “low polyreactivity”.

Turning to “QVKLVESGGGLVQAGGSLRLSCAASGSIFLVKVMGWYRQAPGKERELVAAITWSGGRTYYADSVKGRFTISRDNAKNTVYLQMIILKPEDTAVYYCAAEGWLLNGDSWGQGTQVTVSS”, the “polyreactivity (PSR sort gate)” value was “high polyreactivity”.

For “QVKLVESGGGLVQAGGSLRLSCAASGSIFPHYAMGWYRQAPGKERELVAAISRGGSTNYADSVKGRFTISRDNAKNTVYLQMNSLKPEDTAVYYCNALRYYSRFLYAVAYRYDYWGQGSQVTVSS”, the “polyreactivity (PSR sort gate)” value was “high polyreactivity”.

Consider “QVKLVESGGGLVQAGGSLRLSCAASGSIFRRYGMGWYRQAPGKERELVAVITRGGSTYYADSVKGRFTISRDNAKNTVYLQMNSLKPEDTAVYYCNRSAGKDGQVGGQYDYWGQGTQVTVSS”, for which the “polyreactivity (PSR sort gate)” value is on record as “high polyreactivity”.

Turning to “QVKLVESGGGLVQAGGSLRLSCAASGSIFVGYAIVWYRQAPGKERELVAAISTRGGSTYYADSVKGRFTISRENAKNTVYLKMNSLTPEDTAVYYCAADYLDSTYGYVYGWDDYWGQGTQVTVSS”, the “polyreactivity (PSR sort gate)” value was “low polyreactivity”.

As for “QVKLVESGGGLVQAGGSLRLSCAASGSIFYQYAMGGNRQAPGKERELVAVINRSGSSTYYADSVKGRFTISRDNAKNTVYLQMNSLKPEDTAVYYCAGASKYSEYNYWGQGTQVTVSS”, the “polyreactivity (PSR sort gate)” value is recorded as “high polyreactivity”.

Turning to “QVKLVESGGGLVQAGGSLRLSCAASGSTFPGYAMGWYRQAPGKERELVAAGGSTYYADSVKGRFTISRDNAKNTVYLQMNSLKTEDTAVYYCAATWGSVQKGTYYYWGQGTQVTVSS”, the “polyreactivity (PSR sort gate)” value was “low polyreactivity”.

Take “QVKLVESGGGLVQAGGSLRLSCAASGSTFVGYAMGWYRQAHGKERELVAAINDSGGSTYYADSVKGRFTISRDNAKNTVYLQMNSLKPEDTAVYYCAADSSGTSWYTFDYWGQGTQVTVSS”: the “polyreactivity (PSR sort gate)” value is given as “low polyreactivity”.

Regarding “QVKLVESGGGLVQAGGSLRLSCAAYGSTFTRNAMGWYRQAPGKERQLVAAITSGGSTNYADSVKGRFTISRDNAKNTVYLEMNSLKPEDTAVYYCAAGLGRYFYSWRYLYSIFDYWGQGTQVTVSS”, the “polyreactivity (PSR sort gate)” value is given as “low polyreactivity”.

Consider “QVKLVESGGGLVQAGGSLRLSFAASGYTFGSNAMGWYRQAPGKERELVADIDCSSGNTYYADSVKGRFTISRDNAKNTVYLQMNSLKPEDTAVYYCAAELHIYYSWYWYDYWGQGTQVTVSS”, for which the “polyreactivity (PSR sort gate)” value is given as “high polyreactivity”.

“QVKLVESGGGLVQAGGSLRLTCAASGITFFIYAMGWYRQAPGKERELFYAIRSGGSTNYADSVKGRFTISRDNAKNTVYLQMNSLKPEDTAVYYCAADVYGTVRRVGWYYVGEGYDYWGQGTQLTVSS”: the “polyreactivity (PSR sort gate)” value is “low polyreactivity”.

Consider “QVKLVESGGGLVQAGGTLRLSCAASGSISWVYAMGWYRQAPGKERELVADITDSGDSTYYADSVKGRFTISRDNAKNTVYLQMNSLKPEDTAVFYCAAVSGPFVQTSGNGEYDYCGQGTQVTVSS”, for which the “polyreactivity (PSR sort gate)” value was “low polyreactivity”.

On to “QVKLVESGGGLVQAVGILSLSCAASGSILGLYAMGWYRQAPGKERELVASITSSGSTYYADSVKGRFTISRDNAKNTVYLQMIILKPEDTAVYYCAAVVSYYYYIRYDYWGQGTQVTVSS”, for which the “polyreactivity (PSR sort gate)” value is reported as “low polyreactivity”.

With “QVKLVESGRGFVQAGGSLRISCAASGITFRYNAMGWYRQAPGKERELVAAITFSGGSTYYSDSVKGRFTISRDNAKNTVYLQMNILKPEDTAVYYCAKLGSTSTRGNYDYWGQGTQVTVSS”, the “polyreactivity (PSR sort gate)” value was “low polyreactivity”.

Regarding “QVKLVESGRGLVQAGGSLRLSCAASGSIFAQNVMGWYRQAPGKERELVAAISYSGGTTYYADSVKGRFTISRDNAQNTVYLQMNSLKPEDTAVYYCAAEFGVYEYDYWGQGTQVTVSS”, the “polyreactivity (PSR sort gate)” value is “low polyreactivity”.

On to “QVKRVESGGGLVQAGGSLRLSCAASGIIFTYYAMGWYRQAPGKERELVAAISWTGGRTYFADSVKGRFTISRDNAKNTVYLQMNSLKREDTAVYYCAAKQYTRFGYYYWGQGTQVTVSS”, for which the “polyreactivity (PSR sort gate)” value is “high polyreactivity”.

For “QVLLQESGGGLVQAGGSLRLSCAASGNIFSAGGMGWSRQAPVNERELVAGIGTGTSTNYADSVKGRFTISRDNSKNTVYLQMNSLTPEDTAVYYCAAAYYSGLSHWYWGQGTQVTVSS”, the “polyreactivity (PSR sort gate)” value was “low polyreactivity”.

In the case of “QVLLQESGGGLVQAGGSLRLSCAASGNIFSAGGMGWYRQAPVKELELVAGIGTGTSTNYADSVKGRFTISRDNAKNTVYLQMNSLKPEDTAVYYCAADSYPAYLGFVGFDYWGQGTQVNVSS”, the “polyreactivity (PSR sort gate)” value is on record as “low polyreactivity”.

Regarding “QVLLQETGGGLVQAGGSLRLSCAASGTISTDIRMGWYRLAPGKESEFVASIDCCSTTYYADSVKGRFTISRDNAKYTVYLQMNSLKPEDTAMYYCAAREATEFYLYYWGQGTQVTVSS”, the “polyreactivity (PSR sort gate)” value was “low polyreactivity”.

Take “QVLLVESAGGLVQAGGSLRLSCAASGRTFYRYAMGWYRQAPGKERELVAVISWTSGSTYYADSVKGRFTISRDNAKNTVYLQMNSLKPEDTAVYYCAARRGGSYRYEYWGQGTQVTVSS”: the “polyreactivity (PSR sort gate)” value is recorded as “high polyreactivity”.
